The record followed here is article PMC10625650, “The WW domain of IQGAP1 binds directly to the p110α catalytic subunit of PI 3-kinase” (The Biochemical journal, 2023).

This experiment concerns the target T1, full-length untagged human p110α (catalytic subunit of PI 3-kinase) (human, UniProt P42336 1-1068, [35S]-methionine label).
T1 construct: human p110α (PIK3CA), full length, untagged; also called native p110α; unaltered wild-type p110α
Description: pull-down; 25 μg GST or GST fusion protein purified from bacteria, bound to glutathione-Sepharose beads; 1 pmol 35S-labelled in vitro translated protein (partially purified by ammonium sulfate precipitation); binding buffer 20 mM Tris–HCl pH 7.1, 125 mM KOAc, 0.5 mM EDTA, 1 mM DTT, 0.1% Tween20, 12.5% glycerol; sedimentation, SDS–PAGE, autoradiography or phosphorimaging; percent binding against input. The conditions noted are these: one partner purified.

T1 sequence (P42336 whole entry): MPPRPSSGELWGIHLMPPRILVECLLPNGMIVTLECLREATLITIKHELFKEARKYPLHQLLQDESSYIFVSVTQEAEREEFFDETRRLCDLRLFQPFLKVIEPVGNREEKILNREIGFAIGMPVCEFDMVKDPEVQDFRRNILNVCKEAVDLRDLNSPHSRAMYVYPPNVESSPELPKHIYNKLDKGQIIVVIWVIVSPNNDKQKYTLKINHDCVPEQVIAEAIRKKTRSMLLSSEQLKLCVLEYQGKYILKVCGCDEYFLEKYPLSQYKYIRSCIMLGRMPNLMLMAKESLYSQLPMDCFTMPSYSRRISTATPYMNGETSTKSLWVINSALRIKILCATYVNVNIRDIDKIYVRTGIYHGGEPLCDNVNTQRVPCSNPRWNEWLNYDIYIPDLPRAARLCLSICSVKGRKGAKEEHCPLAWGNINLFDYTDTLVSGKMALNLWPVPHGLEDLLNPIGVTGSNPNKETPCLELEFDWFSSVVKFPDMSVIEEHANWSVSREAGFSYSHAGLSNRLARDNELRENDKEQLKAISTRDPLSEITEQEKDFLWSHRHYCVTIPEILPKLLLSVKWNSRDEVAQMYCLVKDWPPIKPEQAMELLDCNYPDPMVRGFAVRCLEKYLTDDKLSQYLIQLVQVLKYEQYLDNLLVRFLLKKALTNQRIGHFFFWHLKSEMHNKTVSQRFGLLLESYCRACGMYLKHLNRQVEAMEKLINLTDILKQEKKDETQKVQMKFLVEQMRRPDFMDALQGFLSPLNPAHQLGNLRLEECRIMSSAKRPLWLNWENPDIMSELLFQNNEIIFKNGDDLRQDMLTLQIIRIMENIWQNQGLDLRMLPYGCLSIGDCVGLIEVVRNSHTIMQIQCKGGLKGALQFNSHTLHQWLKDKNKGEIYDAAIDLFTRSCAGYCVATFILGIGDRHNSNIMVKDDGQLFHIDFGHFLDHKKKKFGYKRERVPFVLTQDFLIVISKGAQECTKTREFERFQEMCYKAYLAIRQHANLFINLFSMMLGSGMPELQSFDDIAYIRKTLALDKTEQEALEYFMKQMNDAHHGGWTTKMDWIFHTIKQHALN

B1: GST-WW (WW domain of human IQGAP1 fused to GST) (domain or fragment, UniProt P46940 679-719, looked up)
chain: GDNNSKWVKHWVKGGYYYYHNLETQEGGWDEPPNFVQNSMQ
notes: human IQGAP1, residues 679-719 holding the WW domain (the results name the WW domain as residues 684-710); in plasmid pGEXLB; also called GST-WW fusion protein; wild-type GST-WW; source: expressed in bacteria, purified on glutathione-Sepharose; not shown: GST (Schistosoma japonicum), N-terminal, kept
For orientation: Kd means the equilibrium constant for the complex coming apart. B1 had a dissociation constant (Kd) of 130 µM.
